Experimental data published in patent US20230340152A1.
One block for each binder: values may come before it.

Key:
[1] = molecular target: Murine CD73 ECD (murine) (UniProt Q61503); test: binding assay, format not stated
[2] = molecular target: Cynomolgus CD73 ECD (cynomolgus); test: binding assay, format not stated
Sequence of Cynomolgus CD73 ECD (cynomolgus) (chain, as listed by the source): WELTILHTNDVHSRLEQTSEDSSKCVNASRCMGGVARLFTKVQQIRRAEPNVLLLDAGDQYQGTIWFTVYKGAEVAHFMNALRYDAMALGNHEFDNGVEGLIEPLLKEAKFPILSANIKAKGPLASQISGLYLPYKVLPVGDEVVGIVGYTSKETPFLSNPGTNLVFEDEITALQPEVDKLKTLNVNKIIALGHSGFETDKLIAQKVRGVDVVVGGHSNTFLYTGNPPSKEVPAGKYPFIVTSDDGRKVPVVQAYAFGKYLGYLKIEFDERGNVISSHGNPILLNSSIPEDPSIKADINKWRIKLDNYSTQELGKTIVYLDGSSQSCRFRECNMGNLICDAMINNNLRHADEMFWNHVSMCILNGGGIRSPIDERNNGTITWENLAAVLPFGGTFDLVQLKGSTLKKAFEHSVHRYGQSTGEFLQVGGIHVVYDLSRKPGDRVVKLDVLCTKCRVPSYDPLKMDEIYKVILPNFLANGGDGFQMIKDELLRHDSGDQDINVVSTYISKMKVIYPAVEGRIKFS

Sequence of Murine CD73 ECD (murine) (Q61503 29-551 limits assumed): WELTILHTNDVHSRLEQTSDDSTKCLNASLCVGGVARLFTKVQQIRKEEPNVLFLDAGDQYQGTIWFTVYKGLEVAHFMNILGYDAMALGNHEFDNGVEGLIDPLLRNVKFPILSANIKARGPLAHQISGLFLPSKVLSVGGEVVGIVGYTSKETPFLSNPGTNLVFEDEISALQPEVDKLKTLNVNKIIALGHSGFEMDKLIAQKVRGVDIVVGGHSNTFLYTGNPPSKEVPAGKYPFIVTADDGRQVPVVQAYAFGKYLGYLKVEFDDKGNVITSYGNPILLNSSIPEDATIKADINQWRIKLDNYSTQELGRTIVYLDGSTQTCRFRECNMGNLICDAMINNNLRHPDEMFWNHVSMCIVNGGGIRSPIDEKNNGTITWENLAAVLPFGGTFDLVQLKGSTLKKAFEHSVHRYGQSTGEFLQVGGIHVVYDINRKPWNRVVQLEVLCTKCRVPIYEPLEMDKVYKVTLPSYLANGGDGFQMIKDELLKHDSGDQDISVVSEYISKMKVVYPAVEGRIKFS

- 1/EC50 [1]: 0 nM⁻¹
- 1/EC50 [2]: 0 nM⁻¹
B1: CD730047 (antibody, V domains shown)
VH: EVQLVQSGGGVVQPGRSLRLSCAASGFTFSSYGMHWVRQAPGKGLEWVAVISYDGSIKYYADSVKGRFAISRDNAKNTLYLQMNSLRREDTAMYYCASGLTGVAGALGVWGRGTLVTVSS
VL: QSVLTQPPSASGAPGQRVTISCSGSSSNIGSNTVNWYQRLPGAAPQLLIYNNDQRPSGIPDRFSGSKSGTSGSLVISGLQSEDEADYYCAAWDDSLSGNVFGTGTKVTVL

- 1/EC50 [1]: 0 nM⁻¹
B2: CD730042 (antibody, V domains shown)
VH: GVQLVQSGGGLVQPGGSLRLSCAASGFTFSSYGMHWVRQAPGKGLEWVAVISYDGSIKYYADSVKGRFTISRDDSKNALYLQMNSLRAEDTAVYYCSTLSGSYGYFDYWGRGTLVTVSS
VL: QSVLTQPASVSGSPGQSITISCAGTSSDVGGYNYVSWYQQHPGKAPKLMIYEGSKRPSGVSNRFSGSKSGNTASLTISGLQAEDEADYYCSSYTTRSTRVFGGGTKLTVL
